Data: publication PMC7156710
pKd: −log10 of the molar value.

Assays:
Sox2-HMG (Homo sapiens) = Sox2-HMG (Homo sapiens) (UniProt P48431); test: fluorescence anisotropy; settings: 10 mM Tris-HEPES pH 7.5, 135 mM KCl, 15 mM NaCl, 1 mM DTT, 8% Ficoll, 0.05% NP-40, 0.1 mg/mL BSA; 2 nM DNA or 3 nM RNA; room temperature (stated for …)
[1] = target: Sox2 full length (Homo sapiens) (UniProt P48431); test: FP; settings: 10 mM Tris-HEPES pH 7.5, 8% Ficoll, 0.05% NP-40, 135 mM KCl, 15 mM NaCl, 1 mM DTT, 0.1 mg/mL BSA; 2 nM DNA or 3 nM RNA; low values mean tight binding
Chain of Sox2 full length (Homo sapiens) (P48431 whole entry): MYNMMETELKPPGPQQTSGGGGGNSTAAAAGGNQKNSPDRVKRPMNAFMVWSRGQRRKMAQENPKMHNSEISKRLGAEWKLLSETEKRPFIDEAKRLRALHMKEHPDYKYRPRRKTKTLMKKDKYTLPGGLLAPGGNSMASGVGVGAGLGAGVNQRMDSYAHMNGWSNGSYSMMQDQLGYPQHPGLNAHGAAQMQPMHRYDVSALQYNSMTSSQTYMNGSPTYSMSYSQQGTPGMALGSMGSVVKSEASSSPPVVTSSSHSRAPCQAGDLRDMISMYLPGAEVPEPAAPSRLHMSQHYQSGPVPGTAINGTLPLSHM

[2] = target: Sox2-HMG (thrombin cleaved) (Homo sapiens) (UniProt P48431); test: FP; settings: 10 mM Tris-HEPES pH 7.5, 8% Ficoll, 0.05% NP-40, 135 mM KCl, 15 mM NaCl, 1 mM DTT, 0.1 mg/mL BSA; 2 nM DNA or 3 nM RNA; low values mean tight binding
Chain of Sox2-HMG (thrombin cleaved) (Homo sapiens) (P48431 other isoform, or with tags, fused parts or gaps): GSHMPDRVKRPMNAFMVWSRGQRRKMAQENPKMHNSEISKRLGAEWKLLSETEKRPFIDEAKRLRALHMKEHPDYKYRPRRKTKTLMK

[3] = target: Sox2 full length (Homo sapiens) (UniProt P48431); test: fluorescence anisotropy; settings: 10 mM Tris-HEPES pH 7.5, 135 mM KCl, 15 mM NaCl, 1 mM DTT, 8% Ficoll, 0.05% NP-40, 0.1 mg/mL BSA; 2 nM DNA or 3 nM RNA; room temperature (stated for …)

Chain of Sox2-HMG (Homo sapiens) (P48431 40-123): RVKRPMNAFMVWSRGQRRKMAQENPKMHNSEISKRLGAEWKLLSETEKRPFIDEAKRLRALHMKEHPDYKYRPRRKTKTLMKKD

Row | Substance | pKd (Sox2-HMG (Homo sapiens)) | pKd [1] | pKd [2] | binding signal (fold weaker than FGF4) [3]
1 | GGAAGAAGUGAAAUCACUAUAUUUAGAAACGAAUGCUACCAUCCCACCCCAACUACAUGUUCAGGUUAAAUGCGUGCACAUCCUGGUAGCUGGAACAUCUGUUUCUAGCUUGUUGUUCCUCUUGGCUGCUUUUCAAUUGGAUUUCCUCGAGCAGGUCCCAGGCUUGUCACUGCAGCCAGGGUCUGUUAACCAUCACCACUGGUUCUACAUUAAGUAGGAGGUUCAGGGCUAAGCUAAUAACUCGCCUGCCUUUCUGACUGAUCACAGUGAUGUUCGCCGUGGCCACUUAUCAUGCGGGCUCCUUUGGGAGGGUGCUCUUCUUUGUCUGUACCUCUGGGUGGAAAGGGCGAAUUC [ES2 lncRNA 1-354] | 7.59 | 7.76 | 7.59 | 
2 | dsDNA w/o binding site |  |  |  | > 200
3 | ssDNA with consensus site |  |  |  | > 200
